{
  "source": "patent US10052364B2",
  "about": "“Osteocalcin as a treatment for cognitive disorders” (THE TRUSTEES OF COLUMBIA UNIVERSITY IN THE CITY OF NEW YORK, priority 2013, dated 2018)",
  "key": {"WT mice": {"system": "WT mice", "assay": "ICV infusion in adult WT mice, D/LT and EPMT tests", "type": "in vivo, mouse", "conditions": "ICV 3 or 10 ng/hour for one month", "description": "FIG. 8. Osteocalcin improves cognitive function in adult wild-type (WT) mice. Results from dark and light (DLT) and elevated plus maze tests (EPMT) performed in 3-month old WT mice infused ICV with vehicle (PBS) or Ocn (3, 10, 30 ng/hour) are shown. (A) DLT measuring the latency to enter, the number of entries, and the time spend in lit compartment. (B) EPMT measuring the number of entries into open arms and the time spend in lit compartments.\nEach mouse was allowed to explore the apparatus for 5 min. Global activity was assessed by measuring the number of entries […] (David et al, 2009, Neuron 62:479-493). Anxiety was assessed by comparing the time spent in the open arms.\nThe test was performed in a quiet, darkened room. Mice were individually housed in cages containing a handful of bedding from their home cage and acclimated to the room at least 1 h before the test. Naïve mice were placed individually in the testing chamber in the dark compartment. The test was 5 min in duration, and time spent and number of entries in light compartments were recorded a highly trained observer, blind to the genotype of the mice. […]"}, "[1]": {"system": "mouse primary hindbrain neurons (MPHN)", "assay": "Calcium flux in primary hindbrain neurons", "type": "cell-based", "conditions": "MPHN treated with undercarboxylated or carboxylated osteocalcin", "description": "For calcium imaging, primary hindbrain neurons seeded on 12 mm coverslips were allowed the appropriate time to form structural networks. These cultures were washed with HBSS and loaded with 2.5 μM FURA-2, AM calcium indicator for 45 minutes at room temperature, according to the manufacturer's protocol. Cells were then washed to remove excess indicator and incubated for 30 minutes to allow internalized esters to become de-esterified. 30 ng/ml of osteocalcin was prepared with the control buffer of 1×HBBS supplemented with 10 mM HEPES buffer and 2 mM CaCl2. Using a Zeiss microscope with a perfusion system, coverslips were first perfused with control and osteocalcin. After each stimulation, cells were depolarized with 50 mM KCl to determine the percentage of live cells being imaged. All treatments were recorded using two-photon laser scanning microscopy by Prairie Technologies and analyzed by Z axis profile plotting using ImageJ.\nTo determine if osteocalcin acts directly on neurons to modulate neurotransmitter synthesis, several types of assays were performed. First, brainstem and midbrain explants from WT and Gprc6a^−/− mice were generated. […] Third, to further confirm that osteocalcin signals in neurons of the hindbrain, calcium flux in MPHN treated with undercarboxylated or carboxylated osteocalcin (FIG. 3F) was measured. […]"}, "[2]": {"system": "neurons in the brain (WT brain sections)", "assay": "Binding of biotinylated osteocalcin to brain sections (anti-biotin immunofluorescence, competition)", "set-up": "species or system mouse", "description": "FIG. 3. Osteocalcin binds to neurons in the brain. (A) Measurement of the total osteocalcin in 3 month-old Osteocalcin^−/− mice infused subcutaneously for 7 days with either uncarboxylated osteocalcin (300 ng/hour, right panel) or PBS (left panel). Osteocalcin levels were measured in bone, serum, and different parts of the brain (cortex, midbrain, hypothalamus, brainstem, and cerebellum). (B) Subcutaneous infusion of leptin ([…], right panel) or PBS (left panel) for 7 days in ob/ob mice. Leptin levels were measured in serum, cortex, midbrain, hypothalamus, brainstem, and cerebellum. (C) Binding of GST-biotin (30 μg/ml) (panel 1) and biotinylated osteocalcin (300 ng/ml) (panels 2-4) to the dorsal (DR) and median (MR) raphe nuclei of the brainstem (identified by anti-5-HT immunofluorescence), to the ventral tegmental area (VTA) of the midbrain (identified by anti-TH immunofluorescence), and to the CA3 and CA4 of the hippocampus (identified anatomically). […] Binding with GST-biotin, osteocalcin-biotinylated, and competition assays were performed on adjacent sections. (D) Expression of Tph2 and GAD 1 in brainstem, and Th in midbrain explants from WT and Gprc6a^−/− mice, treated with 10 ng/ml osteocalcin or vehicle. (E) Gene expression in WT primary hindbrain neuron cultures treated with 10 ng/ml osteocalcin or vehicle. (F) Calcium flux response of primary hindbrain cultured neurons to osteocalcin treatment. (G-H) Extracellular current recordings of (G) neurons of the dorsal raphe nucleus and (H) GABAergic interneurons of the brainstem treated with osteocalcin (10 ng/ml).\nBrains from 8-week-old mice were snap-frozen in isopentane, and […] thick sections were prepared and desiccated overnight at 4° C. under vacuum. On the following day, sections were rehydrated in ice-cold binding buffer (50 mM TrisHCl [pH 7.4], 10 mM MgCl2, 0.1 mM EDTA and 0.1% BSA) for 15 min and incubated for 1 hr in the presence of biotinylated osteocalcin (3, 30, 300, 3000 ng/ml) or biotynylated recombinant GST as a control ([…]). After washing in harvesting buffer (50 mM Tris-HCl, pH 7.4), samples were fixed in 4% paraformaldehyde for 15 min, washed in PBS and incubated with goat anti-biotin antibody (1:1000, Vector laboratories) over night at 4° C. Signal was visualized by incubating with anti-goat IgG Cy-3 using Leica DM 5000B microscope (Leica). The binding assays were perform on adjacent sections for each conditions tested.\nThis accumulation in discrete regions of the brain raised the question of whether osteocalcin binds to specific neurons in the brain. This was tested by incubating sections of adult or embryonic (E18.5) WT brains with biotinylated undercarboxylated osteocalcin or GST-biotin alone (30 μg/ml), followed by immunofluorescence analysis using an anti-biotin antibody. […]"}, "[3]": {"conditions": "biotinylated undercarboxylated osteocalcin, WT brain sections"}},
  "data": [
    {"molecule": "uncarboxylated osteocalcin: Recombinant osteocalcin bacterially produced, cleaved from the GST subunit; completely undercarboxylated at all three sites (protein, listed as Homo sapiens, uncarboxylated, Recombinant osteocalcin bacterially produced, cleaved from the GST subunit; completely undercarboxylated at all three sites) MRALTLLALLALAALCIAGQAGAKPSGAESSKGAAFVSKQEGSEVVKRPRRYLYQWLGAPVPYPDPLEPRREVCELNPDCDELADHIGFQEAYRRFYGPV", "values": [
      {"measurement": "exploration of the lit compartment and open arms in D/LT and EPM tests", "setting": "WT mice; WT mice", "result": "increase in the exploration"},
      {"measurement": "anxiety-like behavior (D/LT and EPMT)", "setting": "WT mice; WT mice implanted at 2 months", "result": "decrease in anxiety-like behavior"},
      {"measurement": "calcium fluxes in primary hindbrain neurons", "setting": "[1]", "result": "induced changes in calcium fluxes"},
      {"measurement": "binding in the brainstem", "setting": "[2]; [3]", "result": "bound to neurons of the raphe nuclei"},
      {"measurement": "binding in the midbrain", "setting": "[2]; [3]", "result": "bound to the ventral tegmental area and the substantia nigrae"},
      {"measurement": "binding to neuronal populations of the brain", "setting": "[2]; biotinylated undercarboxylated osteocalcin, adult or E18.5 WT brain sections", "result": "bound to several neuronal populations in the forebrain, midbrain, and brainstem"},
      {"measurement": "specificity of binding in the midbrain and brainstem (competition)", "setting": "[2]; excess of unlabeled osteocalcin versus excess of GST", "result": "specific"}
    ]}
  ]
}
